Data from patent US20250135039A1, “INHIBITOR-RESISTANT MGMT MODIFICATIONS AND MODIFICATION OF MGMT-ENCODING NUCLEIC ACIDS” (Ensoma, Inc., priority 2022, published 2025).

Test system: U251 human glioblastoma cell line
Test: in vitro FM-HCR assay of MGMT activity (mPlum O^6MeG reporter plasmid)
Assay type: cell-based
Conditions: for Reporter expression (%) mean, O^6BG: 100 μM O^6BG; for Reporter expression (%) mean, O^6BG / Reporter expression (%) mean, DMSO: U251 cells, flow cytometry 24 h after transfection, damaged/undamaged reporter, inversely related to MGMT activity; for Reporter expression (%) mean, DMSO: 0.1% DMSO; for MGMT activity (a.u.) DMSO / MGMT activity (% of WT) DMSO: DMSO condition; for MGMT activity (a.u.) DMSO / MGMT activity (a.u.) O^6BG: determined from percent reporter expression; for MGMT activity (% of WT) DMSO / MGMT activity (% of WT) O^6BG: relative to wild-type MGMT in same condition; for Relative MGMT activity (%): MGMT activity (a.u.) in O^6BG divided by DMSO x 100, higher values indicate resistance; for MGMT activity (a.u.) O^6BG / MGMT activity (% of WT) O^6BG: O^6BG condition; for Ratio percent reporter expression (O^6BG/DMSO): lower values indicate resistance to O^6BG; for O^6BG resistance relative to WT (%): percentage difference in relative MGMT activity between variant and wild-type MGMT
Excerpt: The present Example includes, in part, an in vitro fluorescence multiplex host cell reactivation (FM-HCR) assay in which a reporter plasmid with O^6MeG-containing oligonucleotides is used. The oligonucleotides induce transcription errors that lead to expression of fluorescent mPlum protein. Functional MGMT will repair the O^6MeG sites and reduce mPlum expression. This represents a rapid and validated assay system to assess intracellular activity of MGMT. Further description of certain such assays is found in Nagel (2014 PNAS USA 111 (18): E1823-32, which is incorporated herein by reference.
The present Example uses an in vitro FM-HCR assay in which a reporter plasmid with 0° MeG-containing oligonucleotides is used to assay MGMT activity in cells. The O^6MeG-containing oligonucleotides induce transcription errors that lead to expression of fluorescent mPlum protein. Functional MGMT will repair the O'MeG sites and reduce mPlum expression. This represents a rapid and validated assay system to assess intracellular activity of MGMT. Further description of certain such assays is found in Nagel et al., 2014 PNAS USA 111 (18): E1823-32 and Piett et al., 2021 Nat. Protoc. 16 (9): 4265-4298, each of which is incorporated herein by reference.
The in vitro FM-HCR assay was performed using the U251 human glioblastoma cell line. The cells were cultured in DMEM with 10% FBS and passaged every three days.
To express MGMT variants in the cells, plasmids encoding each MGMT variant were designed and generated by either de novo synthesis or cloning into the pTwist EF1 Alpha Puro vector at the HindII-BamHI multiple cloning site. The pTwist EF1 Alpha Puro plasmid vector drives expression of the MGMT transcript from a human EF1-alpha promoter including intron 1 and an SV40 polyadenylation signal. Plasmids encoding the MGMT variants were purified using standard molecular biology techniques from E. coli with low endotoxins. Plasmids encoding wild-type MGMT or O^6BG-resistant MGMT^P140K were also designed and generated for use as controls.
To perform the in vitro FM-HCR assay, U251 cells were seeded in 12-well plates at a density of 50,000 cells per well in 1 mL culture media. The following day, the media was changed to 1 mL of culture media containing O^6BG (100 μM O^6BG and 0.1% DMSO final) or 0.1% DMSO; and the cells were transfected with 1,000 ng of a plasmid cocktail using Lipofectamine 3000 (ThermoFisher Scientific) at 1.8 μL Lipofectamine 3000 Reagent and 2 μL P3000 reagent in Opti-MEM medium (ThermoFisher Scientific). […] For the “undamaged” condition, the plasmid cocktail replaced the mPlum O^6MeG reporter plasmid with 100 ng of a plasmid expressing mPlum. The plasmid encoding BFP was used as an internal transfection control. For transfections where no MGMT encoding plasmid is used (no pMGMT), 250 ng of additional carrier plasmid was used to maintain a total DNA amount of 1,000 ng in each transfection. Four hours after transfection, the transfection medium was changed.
All transfected cells were analyzed by flow cytometry at 24-hours after transfection. Data was analyzed as previously described in Nagel et al., 2014 PNAS USA 111 (18): E1823-32 and Piett et al., 2021 Nat. Protoc. 16 (9): 4265-4298. For each condition, normalized reporter expression was determined by taking the product of the mPlum-positive cell count and the mean mPlum fluorescence intensity in mPlum-positive cells and dividing it by the product of the BFP-positive cell count and the mean BFP fluorescence intensity in BFP-positive cells. Next, for each MGMT variant, the percent reporter expression was determined by taking the normalized reporter expression in the “damaged” condition and dividing it by the normalized reporter expression in the “undamaged” condition, and then multiplying by 100 to obtain a percent value. […]

| Molecule | Reporter expression (%) mean, O^6BG | Reporter expression (%) mean, DMSO | MGMT activity (a.u.) DMSO | MGMT activity (% of WT) DMSO | Relative MGMT activity (%) | MGMT activity (a.u.) O^6BG | MGMT activity (% of WT) O^6BG | Ratio percent reporter expression (O^6BG/DMSO) | O^6BG resistance relative to WT (%) |
| --- | --- | --- | --- | --- | --- | --- | --- | --- | --- |
| M134F: MGMT polypeptide with mutation M134F (protein) MDKDCEMKRTTLDSPLGKLELSGCEQGLHEIKLLGKGTSAADAVEVPAPAAVLGGPEPLMQCTAWLNAYFHQPEAIEEFPVPALHHPVFQQESFTRQVLWKLLKVVKFGEVISYQQLAALAGNPKAARAVGGAFRGNPVPILIPCHRVVCSSGAVGNYSGGLAVKEWLLAHEGHRLGKPGLGGSSGLAGAWLKGAGATSGSPPAGRN | 97.0% | 51.3% | 1.95 a.u. | 36.0 % of WT | 52.9% | 1.03 a.u. | 72.2 % of WT | 1.89 | 100.2% |
| R135K: MGMT polypeptide with mutation R135K (protein) MDKDCEMKRTTLDSPLGKLELSGCEQGLHEIKLLGKGTSAADAVEVPAPAAVLGGPEPLMQCTAWLNAYFHQPEAIEEFPVPALHHPVFQQESFTRQVLWKLLKVVKFGEVISYQQLAALAGNPKAARAVGGAMKGNPVPILIPCHRVVCSSGAVGNYSGGLAVKEWLLAHEGHRLGKPGLGGSSGLAGAWLKGAGATSGSPPAGRN | 84.3% | 13.3% | 7.50 a.u. | 138.8 % of WT | 15.8% | 1.19 a.u. | 83.0 % of WT | 6.33 | −40.2% |
| M134Y: MGMT polypeptide with mutation M134Y (protein) MDKDCEMKRTTLDSPLGKLELSGCEQGLHEIKLLGKGTSAADAVEVPAPAAVLGGPEPLMQCTAWLNAYFHQPEAIEEFPVPALHHPVFQQESFTRQVLWKLLKVVKFGEVISYQQLAALAGNPKAARAVGGAYRGNPVPILIPCHRVVCSSGAVGNYSGGLAVKEWLLAHEGHRLGKPGLGGSSGLAGAWLKGAGATSGSPPAGRN | 106.3% | 108.0% | 0.93 a.u. | 17.1 % of WT | 101.6% | 0.94 a.u. | 65.8 % of WT | 0.98 | 284.3% |
| M134W: MGMT polypeptide with mutation M134W (protein) MDKDCEMKRTTLDSPLGKLELSGCEQGLHEIKLLGKGTSAADAVEVPAPAAVLGGPEPLMQCTAWLNAYFHQPEAIEEFPVPALHHPVFQQESFTRQVLWKLLKVVKFGEVISYQQLAALAGNPKAARAVGGAWRGNPVPILIPCHRVVCSSGAVGNYSGGLAVKEWLLAHEGHRLGKPGLGGSSGLAGAWLKGAGATSGSPPAGRN | 112.3% | 103.5% | 0.97 a.u. | 17.9 % of WT | 92.1% | 0.89 a.u. | 62.3 % of WT | 1.09 | 248.6% |
| R135L: MGMT polypeptide with mutation R135L (protein) MDKDCEMKRTTLDSPLGKLELSGCEQGLHEIKLLGKGTSAADAVEVPAPAAVLGGPEPLMQCTAWLNAYFHQPEAIEEFPVPALHHPVFQQESFTRQVLWKLLKVVKFGEVISYQQLAALAGNPKAARAVGGAMLGNPVPILIPCHRVVCSSGAVGNYSGGLAVKEWLLAHEGHRLGKPGLGGSSGLAGAWLKGAGATSGSPPAGRN | 82.5% | 42.8% | 2.34 a.u. | 43.3 % of WT | 51.8% | 1.21 a.u. | 84.8 % of WT | 1.93 | 96.1% |
| R135G: MGMT polypeptide with mutation R135G (protein) MDKDCEMKRTTLDSPLGKLELSGCEQGLHEIKLLGKGTSAADAVEVPAPAAVLGGPEPLMQCTAWLNAYFHQPEAIEEFPVPALHHPVFQQESFTRQVLWKLLKVVKFGEVISYQQLAALAGNPKAARAVGGAMGGNPVPILIPCHRVVCSSGAVGNYSGGLAVKEWLLAHEGHRLGKPGLGGSSGLAGAWLKGAGATSGSPPAGRN | 106.0% | 20.0% | 5.00 a.u. | 92.5 % of WT | 18.9% | 0.94 a.u. | 66.0 % of WT | 5.30 | −28.6% |
| M134V: MGMT polypeptide with mutation M134V (protein) MDKDCEMKRTTLDSPLGKLELSGCEQGLHEIKLLGKGTSAADAVEVPAPAAVLGGPEPLMQCTAWLNAYFHQPEAIEEFPVPALHHPVFQQESFTRQVLWKLLKVVKFGEVISYQQLAALAGNPKAARAVGGAVRGNPVPILIPCHRVVCSSGAVGNYSGGLAVKEWLLAHEGHRLGKPGLGGSSGLAGAWLKGAGATSGSPPAGRN | 66.0% | 17.8% | 5.63 a.u. | 104.2 % of WT | 26.9% | 1.52 a.u. | 106.1 % of WT | 3.72 | 1.8% |
